Laboratory results published in IntAct's records for PubMed 22247544.

B1: Corticotropin-releasing factor receptor 1 (Homo sapiens), P34998 (parent)
chain: MGGHPQLRLVKALLLLGLNPVSASLQDQHCESLSLASNISGLQCNASVDLIGTCWPRSPAGQLVVRPCPAFFYGVRYNTTNNGYRECLANGSWAARVNYSECQEILNEEKKSKVHYHVAVIINYLGHCISLVALLVAFVLFLRLRSIRCLRNIIHWNLISAFILRNATWFVVQLTMSPEVHQSNVGWCRLVTAAYNYFHVTNFFWMFGEGCYLHTAIVLTYSTDRLRKWMFICIGWGVPFPIIVAWAIGKLYYDNEKCWFGKRPGVYTDYIYQGPMILVLLINFIFLFNIVRILMTKLRASTTSETIQYRKAVKATLVLLPLLGITYMLFFVNPGEDEVSRVVFIYFNSFLESFQGFFVSVFYCFLNSEVRSAIRKRWHRWQDKHSIRARVARAMSIPTSPTRVSFHSIKQSTAV

Variants of: B1
Conditions: with GNAI2, P04899-1
GNAI2, P04899-1, sequence (P04899 whole entry): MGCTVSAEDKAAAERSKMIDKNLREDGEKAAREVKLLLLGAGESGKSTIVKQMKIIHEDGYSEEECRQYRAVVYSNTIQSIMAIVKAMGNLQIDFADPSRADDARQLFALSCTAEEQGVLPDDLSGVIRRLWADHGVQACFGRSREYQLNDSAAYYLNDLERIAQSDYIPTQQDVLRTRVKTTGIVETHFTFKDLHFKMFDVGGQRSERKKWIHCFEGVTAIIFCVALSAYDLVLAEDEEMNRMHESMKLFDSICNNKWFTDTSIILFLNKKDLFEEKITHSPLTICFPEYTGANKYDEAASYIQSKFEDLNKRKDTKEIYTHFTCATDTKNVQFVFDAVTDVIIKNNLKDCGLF

| Variant | effect of a mutation on the interaction |
| --- | --- |
| R292A | decreasing interaction strength |
| K314A | decreasing interaction strength |
